Source: the supplement of paper PMC10724198
± gives the standard deviation of the averaged measurements.

Tests used:
[1] = tested on: Saccharomyces cerevisiae; test: protein stability index of tFT-peptide fusion (C-terminal peptide) (PSI (0-1 scale)); higher = more stable (slower turnover)
Method: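 MPS profiling in S. cerevisiae of the tFT-X12 degron library: putative degron peptides plus stable controls, 12 aa, fused to the C-terminus of a sfGFP-mCherry timer. Cells are FACS-sorted into 8 mCherry/sfGFP bins and deep-sequenced. PSI runs from 0 (unstable) to 1 (stable). Backgrounds are wild type, das1Δ and doa10Δ at 30 °C, and wild type, das1Δ, cdc34-1 and cdc53-1 at 37 °C; 2-3 technical replicates each.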

[2] = tested on: Saccharomyces cerevisiae; test: as above; details: genetic background: wild type; temperature: 30 C
[3] = genetic background: cdc34-1, temperature: 37 C
[4] = genetic background: cdc53-1, temperature: 37 C
[5] = genetic background: das1 deletion, temperature: 30 C
[6] = genetic background: das1 deletion, temperature: 37 C
[7] = genetic background: doa10 deletion, temperature: 30 C
[8] = genetic background: wild type, temperature: 30 C
[9] = genetic background: wild type, temperature: 37 C
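Further: PSI is a weighted mean of sequencing reads over stability bins, variants kept only with over 10 reads, mCherry proximal and sfGFP distal, peptide attached via GGGS linker.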

## LERLHSVLLLTS
[1]; [3]
  protein stability index: 0.246 ± 0.0054
[1]; [4]
  protein stability index: 0.254 ± 0.0079
[1]; [5]
  protein stability index: 0.223 ± 0.036
[1]; [6]
  protein stability index: 0.379 ± 0.0057
[1]; [7]
  protein stability index: 0.165 ± 0.019
[1]; [8]
  protein stability index: 0.217 ± 0.027
[1]; [9]
  protein stability index: 0.324 ± 0.011
[2]
  protein stability index: 0.284 ± 0.021

## WVVVKITAHTAT
[1]; [3]
  protein stability index: 0.323 ± 0.028
[1]; [4]
  protein stability index: 0.38 ± 0.021
[1]; [5]
  protein stability index: 0.22 ± 0.02
[1]; [6]
  protein stability index: 0.405 ± 0.018
[1]; [7]
  protein stability index: 0.185 ± 0.0081
[1]; [8]
  protein stability index: 0.222 ± 0.021
[1]; [9]
  protein stability index: 0.4 ± 0.0065
[2]
  protein stability index: 0.326 ± 0.016

## VQLLTRLKTPHP
[1]; [3]
  protein stability index: 0.6608 ± 0.0013
[1]; [4]
  protein stability index: 0.7443 ± 0.0035
[1]; [5]
  protein stability index: 0.656 ± 0.016
[1]; [6]
  protein stability index: 0.719 ± 0.015
[1]; [7]
  protein stability index: 0.636 ± 0.021
[1]; [8]
  protein stability index: 0.65 ± 0.024
[1]; [9]
  protein stability index: 0.716 ± 0.021
[2]
  protein stability index: 0.733 ± 0.026

## VLVRVIYLLVSG
[1]; [3]
  protein stability index: 0.276 ± 0.007
[1]; [4]
  protein stability index: 0.373 ± 0.013
[1]; [5]
  protein stability index: 0.23 ± 0.038
[1]; [6]
  protein stability index: 0.469 ± 0.0053
[1]; [7]
  protein stability index: 0.178 ± 0.026
[1]; [8]
  protein stability index: 0.234 ± 0.029
[1]; [9]
  protein stability index: 0.404 ± 0.017
[2]
  protein stability index: 0.347 ± 0.02

## VRRGAVWCCLCG
[1]; [3]
  protein stability index: 0.666 ± 0.0079
[1]; [4]
  protein stability index: 0.73 ± 0.0094
[1]; [5]
  protein stability index: 0.623 ± 0.012
[1]; [6]
  protein stability index: 0.748 ± 0.004
[1]; [7]
  protein stability index: 0.368 ± 0.017
[1]; [8]
  protein stability index: 0.405 ± 0.014
[1]; [9]
  protein stability index: 0.633 ± 0.0059
[2]
  protein stability index: 0.474 ± 0.011

## FFCCFVFVLGFC
[1]; [3]
  protein stability index: 0.328 ± 0.011
[1]; [4]
  protein stability index: 0.443 ± 0.01
[1]; [5]
  protein stability index: 0.312 ± 0.028
[1]; [6]
  protein stability index: 0.4401 ± 0.0036
[1]; [7]
  protein stability index: 0.283 ± 0.014
[1]; [8]
  protein stability index: 0.291 ± 0.019
[1]; [9]
  protein stability index: 0.393 ± 0.0054
[2]
  protein stability index: 0.419 ± 0.021

## VFFLSFIFRFFL
[1]; [3]
  protein stability index: 0.594 ± 0.022
[1]; [4]
  protein stability index: 0.558 ± 0.02
[1]; [5]
  protein stability index: 0.508 ± 0.035
[1]; [6]
  protein stability index: 0.547 ± 0.013
[1]; [7]
  protein stability index: 0.482 ± 0.021
[1]; [8]
  protein stability index: 0.454 ± 0.0048
[1]; [9]
  protein stability index: 0.55 ± 0.087
[2]
  protein stability index: 0.532 ± 0.048

## PVTAVYFVLYIW
[1]; [3]
  protein stability index: 0.134 ± 0.0025
[1]; [4]
  protein stability index: 0.231 ± 0.017
[1]; [5]
  protein stability index: 0.177 ± 0.032
[1]; [6]
  protein stability index: 0.332 ± 0.019
[1]; [7]
  protein stability index: 0.143 ± 0.01
[1]; [8]
  protein stability index: 0.167 ± 0.026
[1]; [9]
  protein stability index: 0.298 ± 0.035
[2]
  protein stability index: 0.251 ± 0.03

## FFVSFFFFLWLV
[1]; [3]
  protein stability index: 0.204 ± 0.011
[1]; [4]
  protein stability index: 0.181 ± 0.024
[1]; [5]
  protein stability index: 0.204 ± 0.011
[1]; [6]
  protein stability index: 0.261 ± 0.014
[1]; [7]
  protein stability index: 0.278 ± 0.038
[1]; [8]
  protein stability index: 0.161 ± 0.018
[1]; [9]
  protein stability index: 0.189 ± 0.015
[2]
  protein stability index: 0.228 ± 0.0027
